The results in this text go back to patent US20240301033A1 (published 2024).

For assay [1], the target named is T1, human CD8 alpha (CD8A) on primary human CD8+ T cells (human, UniProt P01732 22-235).
T1 construct: whole, on cells
The experiment in a line: flow cytometry, human CD8+ T cells, 2 uM. As to the method:
(§1) Binding of the 190 ELISA hits to human and cynomologous monkey primary CD8 T cells was assessed by flow cytometry. The FN3 domain molecules were diluted to 2 μM and 0.2 μM in PBS and incubated with human or cynomologous monkey CD8+ T cells in 96-well format. After 1 hour at 4° C., the cells were washed once with PBS and then resuspended with an anti-FN3 domain antibody (PAB25) solution. Following this incubation, the cells were washed twice with PBS and a PE conjugated secondary antibody and a viability dye were added. Finally, cells were washed and resuspended in PBS for flow cytometric analysis using a BD Canto Instrument. Cells were gating on live cells and median fluorescence intensity of the bound Centyrins (PE channel) was calculated using Cytobank software.
In general terms: A flow cytometer gives signals particle by particle.

Assay [2] has as its target T2, cynomolgus monkey CD8A on primary cynomolgus CD8+ T cells (cynomolgus monkey, UniProt P01732 23-235 (human entry)).
T2 construct: also called Cyno CD8alpha
The assay can be described thus: flow cytometry, cyno CD8+ T cells, 0.2 uM. As to the method:
as §1

Assay [3] concerns the target T2, cynomolgus monkey CD8A on primary …. The assay can be described thus: flow cytometry, cyno CD8+ T cells, 2 uM. How it is done: as §1
The target in assay [4] is T1, human CD8 alpha (CD8A) on primary human …. The experiment in a line: flow cytometry, human CD8+ T cells, 0.2 uM. How it is done:
as §1

T2 sequence (P01732 other isoform, or with tags, fused parts or gaps limits assumed): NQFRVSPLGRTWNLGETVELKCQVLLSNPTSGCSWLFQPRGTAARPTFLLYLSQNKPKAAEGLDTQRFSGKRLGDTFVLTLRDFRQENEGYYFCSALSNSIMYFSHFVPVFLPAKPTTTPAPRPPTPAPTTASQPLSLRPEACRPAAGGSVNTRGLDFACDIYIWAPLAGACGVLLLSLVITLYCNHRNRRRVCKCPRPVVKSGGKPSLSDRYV
T1 sequence (P01732 22-235): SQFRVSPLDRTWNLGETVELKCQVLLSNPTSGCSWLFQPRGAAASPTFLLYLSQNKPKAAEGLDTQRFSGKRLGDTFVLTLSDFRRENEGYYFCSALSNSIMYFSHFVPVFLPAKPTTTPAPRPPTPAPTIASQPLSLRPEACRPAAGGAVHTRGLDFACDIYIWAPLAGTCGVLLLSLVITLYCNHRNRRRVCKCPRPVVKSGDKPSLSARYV

B1: Tencon25-His (designed binder, not shown: small tags and cut ends)
chain: LPAPKNLVVSEVTEDSARLSWTAPDAAFDSFLIQYQESEKVGEAIVLTVPGSERSYDLTGLKPGTEYTVSIYGVKGGHRSNPLSAIFTT
notes: kd not given
With B1, the “Human T-cell Binding 2 uM (MFI)” value in assay [1] was found to be 341 MFI. Besides, the “Cyno T-cell Binding 0.2 uM (MFI)” value in assay [2] worked out at 336 MFI. Moreover, the “Cyno T-cell Binding 2 uM (MFI)” value in assay [3] came to 337 MFI. Moreover, the “Human T-cell Binding 0.2 uM (MFI)” value in assay [4] was determined as 219 MFI.
